These results are taken from patent US20080063717A1.

Test [1] concerns the target human NKp30 receptor (human). Nature of the test: cell-based or functional assay.
A further test addresses NKp46 receptor (human) (UniProt O76036). The experiment in a line: cell-based or functional assay.
UniProt O76036, sequence (O76036 22-304): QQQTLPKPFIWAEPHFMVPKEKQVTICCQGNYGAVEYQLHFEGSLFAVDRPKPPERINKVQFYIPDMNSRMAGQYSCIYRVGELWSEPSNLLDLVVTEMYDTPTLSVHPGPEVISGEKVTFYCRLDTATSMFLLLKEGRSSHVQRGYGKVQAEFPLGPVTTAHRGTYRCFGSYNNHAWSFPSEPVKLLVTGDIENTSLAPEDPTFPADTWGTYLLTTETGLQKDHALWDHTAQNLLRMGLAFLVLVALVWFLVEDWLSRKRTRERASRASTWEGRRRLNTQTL

human NKp30 receptor (human), sequence (chain, as listed by the source limits assumed): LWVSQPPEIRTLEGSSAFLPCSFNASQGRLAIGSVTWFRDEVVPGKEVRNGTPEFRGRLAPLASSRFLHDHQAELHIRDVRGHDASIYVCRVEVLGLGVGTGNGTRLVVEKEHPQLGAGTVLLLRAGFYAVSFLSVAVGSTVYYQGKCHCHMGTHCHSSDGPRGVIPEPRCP

In the case of AZ20 (anti-NKp30) monoclonal antibody, in test [1], the cells in the culture at day 6 that underwent more than 5 divisions (CFSE) was more than 80%; the cells remaining with fluorescence intensity equivalent to resting cells (no division), CFSE, day 6 is 5%; the dose to obtain 50% of maximum effect (NK cell proliferation from PBMC, titration of antibody with IL-2 and IL-15, 3 donors) is less than 0.1 µg/mL; the plateau of the antibody's effect on NK cell proliferation (titration with IL-2 and IL-15, 3 donors) stood at 1 µg/mL.

Regarding Bab281 (anti-NKp46) monoclonal antibody, the cells remaining with fluorescence intensity equivalent to resting cells (no division), CFSE, day 6 in the test with NKp46 receptor (human) worked out at 11%.
